# Reference: article PMC2848554, “Topology and Organization of the Salmonella typhimurium Type III Secretion Needle Complex Components” (PLoS Pathogens, 2010)
# B1: PrgH (natural protein)
# chain: METSKEKTITSPGPYIVRLLNSSLNGCEFPLLTGRTLFVVGQSDALTASGQLPDIPADSFFIPLDHGGVNFEIQVDTDATEIILHELKEGNSESRSVQLNTPIQVGELLILIRPESEPWVPEQPEKLETSAKKNEPRFKNGIVAALAGFFILGIGTVGTLWILNSPQRQAAELDSLLGQEKERFQVLPGRDKMLYVAAQNERDTLWARQVLARGDYDKNARVINENEENKRISIWLDTYYPQLAYYRIHFDEPRKPVFWLSRQRNTMSKKELEVLSQKLRALMPYADSVNITLMDDVTAAGQAEAGLKQQALPYSRRNHKGGVTFVIQGALDDVEILRARQFVDSYYRTWGGRYVQFAIELKDDWLKGRSFQYGAEGYIKMSPGHWYFPSPL
# notes: PrgH, inner ring protein of the SPI-1 type III secretion needle complex, S. typhimurium; wild-type chromosomal allele; the N-terminal amino group of Met-1 (peptide METSK) was cross-linked; predicted transmembrane domain 142-162; Stood in the assays as a subunit of the whole purified needle complex or of the ΔinvG substructure, not as an isolated protein; source: endogenous, S. typhimurium strains …
# B2: PrgH mutant lacking its last 4 amino acids (PrgH^Δ4) (domain or fragment)
# chain: METSKEKTITSPGPYIVRLLNSSLNGCEFPLLTGRTLFVVGQSDALTASGQLPDIPADSFFIPLDHGGVNFEIQVDTDATEIILHELKEGNSESRSVQLNTPIQVGELLILIRPESEPWVPEQPEKLETSAKKNEPRFKNGIVAALAGFFILGIGTVGTLWILNSPQRQAAELDSLLGQEKERFQVLPGRDKMLYVAAQNERDTLWARQVLARGDYDKNARVINENEENKRISIWLDTYYPQLAYYRIHFDEPRKPVFWLSRQRNTMSKKELEVLSQKLRALMPYADSVNITLMDDVTAAGQAEAGLKQQALPYSRRNHKGGVTFVIQGALDDVEILRARQFVDSYYRTWGGRYVQFAIELKDDWLKGRSFQYGAEGYIKMSPGHWYF
# notes: PrgH of S. typhimurium without its last 4 amino acids; also called C-terminal truncated PrgH; source: S. typhimurium SB906 (chromosomal ΔprgH) complemented with a pWSK29 plasmid, natural promoter; purified within needle complexes; copies: 24
# B3: InvG (natural protein)
# chain: SEKIPVTGSGFVAKDDSLRTFFDAMALQLKEPVIVSKMAARKKITGNFEFHDPNALLEKLSLQLGLIWYFDGQAIYIYDASEMRNAVVSLRNVSLNEFNNFLKRSGLYNKNYPLRGDNRKGTFYVSGPPVYVDMVVNAATMMDKQNDGIELGRQKIGVMRLNNTFVGDRTYNLRDQKMVIPGIATAIERLLQGEEQPLGNIVSSEPPAMPAFSANGEKGKAANYAGGMSLQEALKQNAAAGNIKIVAYPDTNSLLVKGTAEQVHFIEMLVKALDVAKRHVELSLWIVDLNKSDLERLGTSWSGSITIGDKLGVSLNQSSISTLDGSRFIAAVNALEEKKQATVVSRPVLLTQENVPAIFDNNRTFYTKLIGERNVALEHVTYGTMIRVLPRFSADGQIEMSLDIEDGNDKTPQSDTTTSVDALPEVGRTLISTIARVPHGKSLLVGGYTRDANTDTVQSIPFLGKLPLIGSLFRYSSKNKSNVVRVFMIEPKEIVDPLTPDASESVNNILKQSGAWSGDDKLQKWVRVYLDRGQEAIK
# notes: InvG, secretin of the SPI-1 needle complex (outer rings and neck), S. typhimurium; processed InvG starts at Ser-25; printed residue numbers include the signal peptide; Stood in the assays as a subunit of the purified needle complex; source: endogenous, S. typhimurium strain SB905 (w.t.) and SB906 complemented with plasmid-borne PrgH; purified within needle complexes
# Key:
# InvG [1] = molecular target: B3; assay: cross-linking; sucrose gradient purified whole needle complexes (about 1 mg/ml, w.t. strain SB905) on ice with 200 µM BS2G-d0/d4 for 30 or 60 min; single particles re-purified on sucrose gradients; tryptic digestion in solution, high-resolution mass spectrometry, xQuest score above 15; settings: both partners purified
# InvG [2] = molecular target: B3; assay: negative-stain electron microscopy; purified needle complexes of the PrgH^Δ4 strain, without high pH treatment; negative stain; settings: both partners purified
# [3] = molecular target: the molecule itself; assay: negative-stain electron microscopy, single particle analysis; purified needle complexes incubated in 10 mM sodium phosphate pH 10.4 (legend: pH 10.5), 0.5 M NaCl, 0.1% LDAO, 15 min at 37°C, sucrose gradient, then negative stain (PTA or NanoVan); no symmetry imposed, rotational cross-correlation
# [4] = molecular target: the molecule itself; assay: cryo electron microscopy, single particle class averages; purified complexes from wild type and ΔinvG strains, vitrified; two-dimensional class averages and their density difference
# PrgH = molecular target: B1; assay: cross-linking; sucrose gradient purified whole needle complexes (about 1 mg/ml, w.t. strain SB905) on ice with 200 µM BS2G-d0/d4 for 30 or 60 min; single particles re-purified on sucrose gradients; tryptic digestion in solution, high-resolution mass spectrometry, xQuest score above 15; settings: both partners purified
# [5] = molecular target: B2; assay: negative-stain electron microscopy, single particle analysis; purified needle complexes incubated in 10 mM sodium phosphate pH 10.4 (legend: pH 10.5), 0.5 M NaCl, 0.1% LDAO, 15 min at 37°C, sucrose gradient, then negative stain (PTA or NanoVan); no symmetry imposed, rotational cross-correlation; settings: both partners purified
binder,measurement,setting,value
B1,binding result,InvG [1],binds
B2,binding result,InvG [2],binds
same,stoichiometry N,[3],24
B3,binding result,[4],binds
"PrgK (natural protein, lipoprotein; lipidated N-terminal cysteine (Cys-18), PrgK, lipoprotein of the SPI-1 needle complex base, S. typhimurium; predicted transmembrane domain 207-227; printed residue numbers include the signal peptide; Stood in the assays as a subunit of the purified needle complex or its substructures; source: endogenous, S. typhimurium strains SB905 (w.t.), SB1171 (ΔinvG) and SB906 complemented with plasmid-borne PrgH; purified within needle complexes) CKDKDLLKGLDQEQANEVIAVLQMHNIEANKIDSGKLGYSITVAEPDFTAAVYWIKTYQLPPRPRVEIAQMFPADSLVSSPRAEKARLYSAIEQRLEQSLQTMEGVLSARVHISYDIDAGENGRPPKPVHLSALAVYERGSPLAHQISDIKRFLKNSFADVDYDNISVVLSERSDAQLQAPGTPVKRNSFATSWIVLIILLSVMSAGFGVWYYKNHYARNKKGITADDKAKSSNE",binding result,PrgH,binds
same,stoichiometry N,[3],24
same,binding result,[5],binds
